In test [1] the target is T1, human FcRn (human, UniProt P55899 24-297; P61769 21-119, limits assumed, biotinylated).
T1 construct: bought; also called FcRn pH6
Description: SPR, pH6.0.

For test [2], the target named is T2, human FcγR1A (human, UniProt P12314 16-288, biotinylated).
T2 construct: bought; also called CD64A
The test can be described thus: SPR 37C, kinetic; hIgG1 D265A Fc variant.
Description: (§1) For the high affinity FcR interactions (FcγR1A, and also FcRn assessed at pH6.0) the binding was assessed in a kinetic analysis with antibody as analyte. […] Reference flow cell 1 was left empty in all channels. Purified antibody was then injected at a single concentration and on/off rates calculated by curve fitting on BiaEvaluation software.

The target in test [3] is T3, human FcγR2A 131R (human, UniProt P12318 34-217).
T3 construct: extracellular domain
T3 sequence (looked up): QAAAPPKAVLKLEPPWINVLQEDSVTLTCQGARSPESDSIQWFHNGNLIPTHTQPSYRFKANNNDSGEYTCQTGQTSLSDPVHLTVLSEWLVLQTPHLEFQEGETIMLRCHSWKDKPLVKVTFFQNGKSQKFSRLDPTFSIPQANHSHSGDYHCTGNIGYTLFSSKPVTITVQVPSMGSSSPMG
The test can be described thus: SPR 37C, steady state.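 Note: fc variants captured on chip-bound human BTLA ectodomain, recombinant FcγR ectodomains injected as analyte at varied concentrations, double-referenced equilibrium binding fitted to Langmuir model.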

The target in test [4] is T4, human FcγR2A 131H (human, UniProt P12318 34-217).
T4 construct: extracellular domain
T4 sequence (looked up): T3 sequence (looked up) with R134H
Description: SPR 37C, steady state.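 Note: fc variants captured on chip-bound human BTLA ectodomain, recombinant FcγR ectodomains injected as analyte at varied concentrations, double-referenced equilibrium binding fitted to Langmuir model.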

The target in test [5] is T5, human FcγR3A 158V (human, UniProt P08637 17-208).
T5 construct: extracellular domain
T5 sequence (P08637 17-208 F176V): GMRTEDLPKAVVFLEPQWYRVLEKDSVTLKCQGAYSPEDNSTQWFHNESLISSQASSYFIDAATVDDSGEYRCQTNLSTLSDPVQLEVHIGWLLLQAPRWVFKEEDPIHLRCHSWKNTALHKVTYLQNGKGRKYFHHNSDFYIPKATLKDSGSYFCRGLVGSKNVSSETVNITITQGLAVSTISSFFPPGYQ
The test can be described thus: SPR 37C, steady state.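 Note: fc variants captured on chip-bound human BTLA ectodomain, recombinant FcγR ectodomains injected as analyte at varied concentrations, double-referenced equilibrium binding fitted to Langmuir model.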

Test [6] addresses T6, human FcγR2B (human, UniProt P31994 43-217).
T6 construct: extracellular domain; also called hFcγR2B; CD32B
T6 sequence (looked up): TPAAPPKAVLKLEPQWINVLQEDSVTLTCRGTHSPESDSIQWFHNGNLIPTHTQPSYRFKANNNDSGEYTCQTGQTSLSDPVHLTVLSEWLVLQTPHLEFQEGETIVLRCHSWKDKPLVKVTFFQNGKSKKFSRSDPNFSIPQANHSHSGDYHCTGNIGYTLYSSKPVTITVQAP
The test can be described thus: SPR 37C, steady state.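 Note: fc variants captured on chip-bound human BTLA ectodomain, recombinant FcγR ectodomains injected as analyte at varied concentrations, double-referenced equilibrium binding fitted to Langmuir model.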

Test [7] deals with T7, human FcγR3B (human, UniProt O75015 17-200, limits assumed).
T7 construct: extracellular domain; also called CD16B
T7 sequence (O75015 17-200 limits assumed): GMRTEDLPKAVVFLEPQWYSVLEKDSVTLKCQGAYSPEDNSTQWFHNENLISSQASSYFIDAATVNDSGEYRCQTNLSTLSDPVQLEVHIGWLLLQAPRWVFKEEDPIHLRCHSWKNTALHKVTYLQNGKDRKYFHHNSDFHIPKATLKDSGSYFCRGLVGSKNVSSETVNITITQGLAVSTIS
The test can be described thus: SPR 37C, steady state; hIgG1 D265A Fc variant.
Description: (§2) For the low affinity FcγRs (FcγR2A, FcγR2B, FcγR3A and FcγR3B) the interactions were assessed by surface plasmon resonance with the recombinantly expressed FcRs (extracellular domains only) as analyte. Briefly, recombinant human BTLA extracellular domain (BTLA^K31-R151) was covalently immobilised to both flow cells of all channels of a CMS Series S sensor chip using the GE Healthcare Amine coupling kit. The 2.8.6 Fc variant to be assessed was then captured (approx. 500-1000 response units) in flow cell 2 of each channel. Steady state affinity analysis was then performed by injecting varying concentrations of FcR in multiple cycles and measuring equilibrium binding. Double referencing was used (subtracting the signal in the reference Fc1 and also subtracting the signal from a blank zero concentration injection). KDs were calculated from the Langmuir curves (plotting equilibrium binding against analyte concentration to determine the concentration required for half maximal binding).

In test [8] the target is T8, human FcγR3A 158F (human, UniProt P08637 17-208).
T8 construct: extracellular domain
T8 sequence (P08637 17-208): as the sequence (P08637 17-208 F176V) above, with V160F counted along it
Description: SPR 37C, steady state; hIgG1 D265A Fc variant.
Description: as §2

The target of test [9] is T4, human FcγR2A 131H. The test can be described thus: SPR 37C, steady state; hIgG4 P238D Fc variant.
Description: (§3) For the low affinity FcγRs (FcγR2A, FcγR2B, FcγR3A and FcγR3B) the interactions were assessed by surface plasmon resonance with the recombinantly expressed FcRs (extracellular domains only) as analyte. […] The 2.8.6 Fc variant to be assessed was then captured (approx. 500-1000 response units) in flow cell 2 of each channel. Steady state affinity analysis was then performed by injecting varying concentrations of FcR in multiple cycles and measuring equilibrium binding. Double referencing was used (subtracting the signal in the reference Fc1 and also subtracting the signal from a blank zero concentration injection). KDs were calculated from the Langmuir curves (plotting equilibrium binding against analyte concentration to determine the concentration required for half maximal binding).
Test [10] deals with T2, human FcγR1A. The test can be described thus: SPR 37C, kinetic.
Description: as §1
The target of test [11] is T7, human FcγR3B. The test can be described thus: SPR 37C, steady state.
The target in test [12] is T8, human FcγR3A 158F. The test can be described thus: SPR 37C, steady state.
Test [13] deals with T6, human FcγR2B. The test can be described thus: SPR 37C, steady state; hIgG1 D265A G236D A330R Fc variant.
Description: as §3
The target of test [14] is T6, human FcγR2B. The test can be described thus: SPR 37C, steady state; hIgG1 D265A G236D Fc variant.
Description: as §2
Test [15] concerns the target T5, human FcγR3A 158V. Description: SPR 37C, steady state; hIgG1 D265A G236D S267E Fc variant.
Description: as §3
Test [16] concerns the target T2, human FcγR1A. Description: SPR 37C, kinetic; hIgG1 P238D G237D P271G A330R (V9) Fc variant.
Description: For the high affinity FcR interactions (FcγR1A, and also FcRn assessed at pH6.0) the binding was assessed in a kinetic analysis with antibody as analyte. […] Reference flow cell 1 was left empty in all channels. Purified antibody was then injected at a single concentration and on/off rates calculated by curve fitting on BiaEvaluation software. […] IgG Fc has two binding sites for FcRn so this assessment performed with FcRn immobilised at high density provides an avidity estimate for the interaction rather than a true KD.
Test [17] deals with T6, human FcγR2B. The test can be described thus: SPR (Example 23).
Description: as §2
The target in test [18] is T3, human FcγR2A 131R. Description: SPR 37C, steady state; hIgG1 P238D G237D P271G A330R (V9) Fc variant.
Description: as §2
Test [19] addresses T4, human FcγR2A 131H. Described as above.
Description: as §2
Test [20] addresses T5, human FcγR3A 158V. The test is described as above.
Description: as §2
The target of test [21] is T7, human FcγR3B. Described as above.
Description: as §2
The target of test [22] is T6, human FcγR2B. The description is as above.
Description: as §2
The target of test [23] is T8, human FcγR3A 158F. The test is described as above.
Description: as §2
The target of test [24] is T7, human FcγR3B. Description: SPR 37C, steady state; hIgG1 D265A A330R Fc variant.
Description: as §2
The target in test [25] is T2, human FcγR1A. Description: SPR 37C, kinetic; hIgG1 D265A S267E Fc variant.
Description: as §1
Test [26] addresses T3, human FcγR2A 131R. The test can be described thus: SPR 37C, steady state; hIgG1 D265A P238D Fc variant.
Description: as §2
In test [27] the target is T4, human FcγR2A 131H. Described as above.
Description: as §2
Test [28] has as its target T6, human FcγR2B. The description is as above.
Description: as §2

Substitutions are numbered along the chain they refer to. Names and notes keep the numbering of the source.

T2 sequence (P12314 16-288): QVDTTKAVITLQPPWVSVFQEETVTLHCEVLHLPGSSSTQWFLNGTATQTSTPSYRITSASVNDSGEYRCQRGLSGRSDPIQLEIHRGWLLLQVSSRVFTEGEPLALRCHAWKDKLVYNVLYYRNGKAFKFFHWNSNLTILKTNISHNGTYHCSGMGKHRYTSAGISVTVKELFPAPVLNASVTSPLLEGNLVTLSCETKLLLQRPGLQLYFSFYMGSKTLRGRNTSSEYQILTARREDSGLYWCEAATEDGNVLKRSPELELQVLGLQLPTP
T1 sequence (P55899 24-297 limits assumed, chain 1 of 2): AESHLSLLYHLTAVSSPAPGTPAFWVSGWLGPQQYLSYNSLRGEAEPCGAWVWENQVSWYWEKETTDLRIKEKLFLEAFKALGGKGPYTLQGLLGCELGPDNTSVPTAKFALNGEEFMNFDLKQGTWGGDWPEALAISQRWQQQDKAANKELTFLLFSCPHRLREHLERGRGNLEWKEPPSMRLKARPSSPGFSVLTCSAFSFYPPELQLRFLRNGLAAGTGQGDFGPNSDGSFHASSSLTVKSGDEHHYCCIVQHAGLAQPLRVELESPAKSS
T1 sequence (P61769 21-119 limits assumed, chain 2 of 2): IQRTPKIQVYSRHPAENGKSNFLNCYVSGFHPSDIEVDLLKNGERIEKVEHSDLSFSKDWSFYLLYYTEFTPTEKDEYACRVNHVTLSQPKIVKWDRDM

B1: humanised 2.8.6 hIgG1 D265A (antibody)
heavy: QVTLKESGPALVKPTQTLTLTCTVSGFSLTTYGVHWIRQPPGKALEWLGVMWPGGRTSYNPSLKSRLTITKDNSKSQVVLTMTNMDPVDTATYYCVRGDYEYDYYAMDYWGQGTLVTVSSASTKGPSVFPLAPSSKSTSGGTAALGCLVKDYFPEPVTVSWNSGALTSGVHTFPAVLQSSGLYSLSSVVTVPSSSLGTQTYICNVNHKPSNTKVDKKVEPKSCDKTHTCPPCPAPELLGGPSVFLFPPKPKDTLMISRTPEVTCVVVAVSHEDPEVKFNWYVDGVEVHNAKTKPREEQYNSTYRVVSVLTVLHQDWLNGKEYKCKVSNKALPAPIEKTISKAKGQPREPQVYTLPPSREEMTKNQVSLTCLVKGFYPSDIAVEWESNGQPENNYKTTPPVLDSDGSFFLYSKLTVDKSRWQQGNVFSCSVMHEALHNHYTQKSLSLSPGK
light: EIVLTQSPATLSLSPGERATLSCRASSSVSYMHWYQQKPGQAPRPLIYATSNRATGIPARFSGSGSGTDYTLTISSLEPEDFAVYYCHQWSSNPYTFGQGTKLEIKRTVAAPSVFIFPPSDEQLKSGTASVVCLLNNFYPREAKVQWKVDNALQSGNSQESVTEQDSKDSTYSLSSTLTLSKADYEKHKVYACEVTHQGLSSPVTKSFNRGEC
notes: Fc variant with the variable domains of humanised 2.8.6; copies: 2 + 2
As a reminder, the Kd is a measure of binding affinity in units of concentration. In the case of B1, the “avidity (FcRn pH6)” value in test [1] was found to be 12 nM. In addition, the Kd in test [2] was determined as 0.497 µM; in test [3], 48.3 µM; in test [4], 40.1 µM; in test [6], 193 µM; in [7], 5200 µM; in test [8], 1490 µM. Further, the binding result in [5] is listed as “no binding”.

B2: humanised 2.8.6 hIgG4 P238D (antibody)
heavy: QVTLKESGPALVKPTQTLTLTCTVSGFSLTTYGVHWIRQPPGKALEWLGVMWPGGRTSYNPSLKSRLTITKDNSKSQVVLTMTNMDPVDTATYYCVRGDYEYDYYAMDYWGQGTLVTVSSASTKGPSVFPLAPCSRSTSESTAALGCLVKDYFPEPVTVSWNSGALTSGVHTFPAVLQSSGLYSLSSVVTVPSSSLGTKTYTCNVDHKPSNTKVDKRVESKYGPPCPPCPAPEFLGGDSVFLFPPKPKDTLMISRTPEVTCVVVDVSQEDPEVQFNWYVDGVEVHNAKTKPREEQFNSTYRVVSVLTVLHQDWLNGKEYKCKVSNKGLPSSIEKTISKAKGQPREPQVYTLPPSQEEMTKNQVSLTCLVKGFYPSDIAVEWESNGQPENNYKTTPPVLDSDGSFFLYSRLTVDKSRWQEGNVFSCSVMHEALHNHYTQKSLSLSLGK
VL: B1 light
notes: Fc variant with the variable domains of humanised 2.8.6; not shown: human IgG4 heavy chain constant region; copies: 2 + 2
With B2, the Kd in test [9] worked out at 312 µM; in test [3] it was 47.9 µM; in test [6] it was 17.5 µM.

B3: humanised 2.8.6 hIgG1 D265A G236D A330R (antibody)
heavy: QVTLKESGPALVKPTQTLTLTCTVSGFSLTTYGVHWIRQPPGKALEWLGVMWPGGRTSYNPSLKSRLTITKDNSKSQVVLTMTNMDPVDTATYYCVRGDYEYDYYAMDYWGQGTLVTVSSASTKGPSVFPLAPSSKSTSGGTAALGCLVKDYFPEPVTVSWNSGALTSGVHTFPAVLQSSGLYSLSSVVTVPSSSLGTQTYICNVNHKPSNTKVDKKVEPKSCDKTHTCPPCPAPELLDGPSVFLFPPKPKDTLMISRTPEVTCVVVAVSHEDPEVKFNWYVDGVEVHNAKTKPREEQYNSTYRVVSVLTVLHQDWLNGKEYKCKVSNKALPRPIEKTISKAKGQPREPQVYTLPPSREEMTKNQVSLTCLVKGFYPSDIAVEWESNGQPENNYKTTPPVLDSDGSFFLYSKLTVDKSRWQQGNVFSCSVMHEALHNHYTQKSLSLSPGK
light: B1 light
notes: as for B1
Consider B3, for which the “avidity (FcRn pH6)” value in test [1] came out at 14 nM. Moreover, the binding result in test [10], in [5], in test [11] and in [12] was “no binding” throughout. Further, the Kd in test [3] amounted to 91.8 µM; in [4], 91.3 µM; in [13], 398 µM.

B4: humanised 2.8.6 hIgG1 D265A G236D (antibody)
heavy: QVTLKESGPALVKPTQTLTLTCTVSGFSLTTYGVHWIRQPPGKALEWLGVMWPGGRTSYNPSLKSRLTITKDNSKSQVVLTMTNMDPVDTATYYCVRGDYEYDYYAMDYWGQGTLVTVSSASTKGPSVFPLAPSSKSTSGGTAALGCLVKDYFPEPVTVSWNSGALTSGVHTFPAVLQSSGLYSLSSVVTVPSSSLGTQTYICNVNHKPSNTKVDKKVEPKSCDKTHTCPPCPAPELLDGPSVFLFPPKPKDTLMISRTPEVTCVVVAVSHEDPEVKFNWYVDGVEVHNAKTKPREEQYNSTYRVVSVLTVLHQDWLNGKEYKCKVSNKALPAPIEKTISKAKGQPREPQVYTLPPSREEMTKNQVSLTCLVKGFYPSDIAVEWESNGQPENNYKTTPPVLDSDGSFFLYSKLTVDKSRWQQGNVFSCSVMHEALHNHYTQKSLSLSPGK
light: B1 light
notes: as for B1
On to B4, for which, in test [1], the “avidity (FcRn pH6)” value came to 14 nM. Moreover, the binding result in [10], in test [4], in [5], in test [11] and in test [12] was “no binding” throughout. Further, the Kd was 748 µM in test [14] and 91.4 µM in test [3].

B5: humanised 2.8.6 hIgG1 D265A G236D S267E (antibody)
heavy: B3 heavy with S270E, R333A
light: B1 light
notes: as for B1
B5: the “avidity (FcRn pH6)” value in test [1] worked out at 18.7 nM. Besides, the binding result in test [10], in [4], in test [11] and in [12] was “no binding” each time. Also, the Kd amounted to 1650 µM in test [15], 61.8 µM in [3] and 113 µM in test [6].

B6: humanised 2.8.6 hIgG1 P238D G237D P271G A330R (V9) (antibody)
heavy: B3 heavy with D239G, G240D, P241D, A268D, P274G
light: B1 light
notes: Fc variant with the variable domains of humanised 2.8.6; also called 2.8.6 hIgG1 V9; hIgG1 V9 isotype; copies: 2 + 2
With B6, the “avidity (FcRn pH6)” value in test [1] was 1.98 nM. Further, the Kd in test [16] was determined as 0.697 µM; in test [18], 1.84 µM; in [19] it was 26.2 µM; in [20] it was 321 µM; in test [21], 6090 µM; in test [22], 0.173 µM. Moreover, the Kd in test [23] came out at 216 µM. Also, the “fold higher affinity than the P238D isotype” value in test [17] is roughly 30 fold.

B7: humanised 2.8.6 hIgG1 D265A A330R (antibody)
heavy: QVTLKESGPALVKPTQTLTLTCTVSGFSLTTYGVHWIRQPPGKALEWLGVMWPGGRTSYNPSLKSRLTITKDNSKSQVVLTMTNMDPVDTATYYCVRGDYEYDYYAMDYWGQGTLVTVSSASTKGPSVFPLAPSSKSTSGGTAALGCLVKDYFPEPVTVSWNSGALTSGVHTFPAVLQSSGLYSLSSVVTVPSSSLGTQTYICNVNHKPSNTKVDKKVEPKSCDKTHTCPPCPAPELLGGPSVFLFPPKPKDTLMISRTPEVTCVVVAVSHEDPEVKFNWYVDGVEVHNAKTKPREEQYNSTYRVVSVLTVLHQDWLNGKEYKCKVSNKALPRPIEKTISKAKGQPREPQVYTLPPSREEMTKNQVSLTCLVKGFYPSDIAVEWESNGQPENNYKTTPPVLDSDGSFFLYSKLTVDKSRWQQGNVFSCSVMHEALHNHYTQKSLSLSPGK
light: B1 light
notes: as for B1
Regarding B7, the Kd came to 9100 µM in test [24], 67 µM in test [3], 39.4 µM in test [4] and 347 µM in test [6]. Moreover, the binding result in test [5] and in test [12] was “no binding” throughout.

B8: humanised 2.8.6 hIgG1 D265A S267E (antibody)
heavy: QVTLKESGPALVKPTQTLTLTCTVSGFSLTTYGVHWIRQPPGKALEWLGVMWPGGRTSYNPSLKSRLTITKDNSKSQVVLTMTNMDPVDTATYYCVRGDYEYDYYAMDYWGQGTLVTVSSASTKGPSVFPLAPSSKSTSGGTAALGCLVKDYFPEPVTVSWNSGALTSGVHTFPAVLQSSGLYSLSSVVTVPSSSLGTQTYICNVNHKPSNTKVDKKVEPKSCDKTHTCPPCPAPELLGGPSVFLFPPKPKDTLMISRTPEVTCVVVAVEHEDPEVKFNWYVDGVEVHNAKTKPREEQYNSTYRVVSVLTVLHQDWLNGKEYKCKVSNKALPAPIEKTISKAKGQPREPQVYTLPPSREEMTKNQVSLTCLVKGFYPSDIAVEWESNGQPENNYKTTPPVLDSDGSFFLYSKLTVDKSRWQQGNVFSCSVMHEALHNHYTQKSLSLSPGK
light: B1 light
notes: as for B1
Consider B8, for which the Kd in test [25] worked out at 0.415 µM; in [3], 26.7 µM; in [4] it was 173 µM; in test [6] it was 157 µM. Further, in test [1], the “avidity (FcRn pH6)” value is 11.9 nM. Besides, the binding result in [5], in test [11] and in test [12] was “no binding” each time.

B9: humanised 2.8.6 hIgG1 D265A P238D (antibody)
heavy: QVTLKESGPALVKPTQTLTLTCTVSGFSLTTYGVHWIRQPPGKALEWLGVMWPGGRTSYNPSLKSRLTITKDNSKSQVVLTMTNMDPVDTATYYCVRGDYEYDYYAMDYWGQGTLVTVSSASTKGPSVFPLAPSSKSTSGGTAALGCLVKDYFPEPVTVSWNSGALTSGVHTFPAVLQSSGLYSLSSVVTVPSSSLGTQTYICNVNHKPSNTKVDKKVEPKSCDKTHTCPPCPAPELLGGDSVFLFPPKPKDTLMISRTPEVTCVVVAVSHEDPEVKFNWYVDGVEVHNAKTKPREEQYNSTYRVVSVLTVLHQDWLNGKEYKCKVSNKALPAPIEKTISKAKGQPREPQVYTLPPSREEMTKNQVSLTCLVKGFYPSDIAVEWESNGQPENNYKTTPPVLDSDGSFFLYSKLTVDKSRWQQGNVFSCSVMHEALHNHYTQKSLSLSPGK
light: B1 light
notes: as for B1
On to B9, for which the figures for the Kd in test [26], in test [27] and in test [28] were 348 µM, 4590 µM and 684 µM, respectively. Moreover, the binding result in [5], in [11] and in test [12] was “no binding” throughout.

Values taken from patent US20230235058A1 (OXFORD UNIVERSITY INNOVATION, published 2023).
